Reference: patent US20140072613A1, “Compositions and Methods for Treating Cutaneous Scarring” (priority 2012, published 2014)

Tests used:
Test in all cases: biochemical
Type in all cases: biochemical
266 human kinases [1] = molecular target: 266 human kinases (Homo sapiens, UniProt P31749); conditions: PKBα(h); 100 μM
Summary of the method: (§1)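 A filter-capture radiometric assay: phosphorylated cationic substrate binds an anionic membrane and is scintillation-counted, with values referenced to full-activity control.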

266 human kinases [2] = molecular target: 266 human kinases (Homo sapiens, UniProt Q9UPE1); conditions: MSSK1(h); 100 μM
Summary of the method: as §1

266 human kinases [3] = molecular target: T1, 266 human kinases (Homo sapiens, UniProt P29323); conditions: EphB2(h); 100 μM
T1 sequence (P29323 19-1055): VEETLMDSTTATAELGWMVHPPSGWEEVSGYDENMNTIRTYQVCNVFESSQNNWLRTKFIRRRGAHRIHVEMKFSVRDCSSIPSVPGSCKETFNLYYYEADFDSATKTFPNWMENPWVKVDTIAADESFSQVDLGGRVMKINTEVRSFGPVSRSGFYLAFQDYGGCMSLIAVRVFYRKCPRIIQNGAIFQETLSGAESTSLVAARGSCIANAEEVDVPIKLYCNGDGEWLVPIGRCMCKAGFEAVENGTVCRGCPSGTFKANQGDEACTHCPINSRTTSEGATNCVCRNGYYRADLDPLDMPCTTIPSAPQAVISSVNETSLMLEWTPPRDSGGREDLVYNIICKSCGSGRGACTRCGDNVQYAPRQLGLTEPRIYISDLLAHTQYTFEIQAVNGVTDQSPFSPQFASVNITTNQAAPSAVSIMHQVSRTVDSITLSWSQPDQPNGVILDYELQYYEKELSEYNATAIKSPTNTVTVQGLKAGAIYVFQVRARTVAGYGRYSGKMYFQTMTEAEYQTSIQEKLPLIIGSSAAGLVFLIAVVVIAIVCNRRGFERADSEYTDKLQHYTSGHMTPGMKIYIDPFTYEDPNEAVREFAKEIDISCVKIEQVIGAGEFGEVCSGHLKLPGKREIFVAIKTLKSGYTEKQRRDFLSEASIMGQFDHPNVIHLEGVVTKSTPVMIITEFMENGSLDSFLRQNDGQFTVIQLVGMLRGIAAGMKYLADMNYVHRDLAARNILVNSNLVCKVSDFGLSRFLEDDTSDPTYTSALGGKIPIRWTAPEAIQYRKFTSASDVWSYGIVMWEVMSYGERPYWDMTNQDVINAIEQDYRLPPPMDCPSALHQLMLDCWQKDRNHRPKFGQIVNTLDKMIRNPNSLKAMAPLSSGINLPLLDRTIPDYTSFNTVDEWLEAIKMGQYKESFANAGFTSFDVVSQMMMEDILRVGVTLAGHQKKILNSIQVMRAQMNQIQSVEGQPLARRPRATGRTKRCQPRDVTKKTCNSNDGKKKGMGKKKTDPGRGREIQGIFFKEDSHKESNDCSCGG
Summary of the method: as §1

266 human kinases [4] = molecular target: 266 human kinases (Homo sapiens, UniProt P16234); conditions: PDGFRα(h); 100 μM
Summary of the method: as §1

266 human kinases [5] = molecular target: 266 human kinases (Homo sapiens, UniProt P06241); conditions: Fyn(h); 100 μM
Summary of the method: as §1

266 human kinases [6] = molecular target: 266 human kinases (Homo sapiens, UniProt P22455); conditions: FGFR4(h); 100 μM
Summary of the method: as §1

266 human kinases [7] = molecular target: T2, 266 human kinases (Homo sapiens, UniProt Q9BXA7); conditions: TSSK1(h); 100 μM
T2 sequence (Q9BXA7 1-367): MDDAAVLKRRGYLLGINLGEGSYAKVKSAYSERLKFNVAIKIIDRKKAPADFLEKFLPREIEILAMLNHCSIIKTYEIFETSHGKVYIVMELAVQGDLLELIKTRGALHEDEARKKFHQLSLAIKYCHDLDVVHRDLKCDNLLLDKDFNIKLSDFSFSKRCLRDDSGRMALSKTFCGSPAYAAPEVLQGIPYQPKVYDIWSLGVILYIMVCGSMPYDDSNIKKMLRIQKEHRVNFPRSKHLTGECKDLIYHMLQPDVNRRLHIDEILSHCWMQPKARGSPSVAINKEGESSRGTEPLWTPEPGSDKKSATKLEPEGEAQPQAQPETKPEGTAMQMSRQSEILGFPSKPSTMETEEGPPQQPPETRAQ
Summary of the method: as §1

266 human kinases [8] = molecular target: 266 human kinases (Homo sapiens, UniProt P42685); conditions: PTK5(h); 100 μM
Summary of the method: as §1

266 human kinases [9] = molecular target: T3, 266 human kinases (Homo sapiens, UniProt Q9NWZ3); conditions: IRAK4(h); 100 μM
T3 sequence (Q9NWZ3 1-460): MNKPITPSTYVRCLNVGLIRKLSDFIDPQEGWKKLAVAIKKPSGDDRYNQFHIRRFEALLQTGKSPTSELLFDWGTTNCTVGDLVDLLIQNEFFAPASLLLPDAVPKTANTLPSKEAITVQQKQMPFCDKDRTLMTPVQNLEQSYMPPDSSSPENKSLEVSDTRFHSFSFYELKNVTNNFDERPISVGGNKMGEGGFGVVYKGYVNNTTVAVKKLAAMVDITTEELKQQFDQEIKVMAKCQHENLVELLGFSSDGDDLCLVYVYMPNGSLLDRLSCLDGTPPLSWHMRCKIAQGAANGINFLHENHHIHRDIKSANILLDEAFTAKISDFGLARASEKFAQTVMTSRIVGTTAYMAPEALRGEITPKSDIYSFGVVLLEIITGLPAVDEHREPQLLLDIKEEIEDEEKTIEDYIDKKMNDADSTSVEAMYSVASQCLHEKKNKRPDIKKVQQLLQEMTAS
Summary of the method: as §1

Chain of 266 human kinases (Homo sapiens, UniProt P31749) (P31749 whole entry): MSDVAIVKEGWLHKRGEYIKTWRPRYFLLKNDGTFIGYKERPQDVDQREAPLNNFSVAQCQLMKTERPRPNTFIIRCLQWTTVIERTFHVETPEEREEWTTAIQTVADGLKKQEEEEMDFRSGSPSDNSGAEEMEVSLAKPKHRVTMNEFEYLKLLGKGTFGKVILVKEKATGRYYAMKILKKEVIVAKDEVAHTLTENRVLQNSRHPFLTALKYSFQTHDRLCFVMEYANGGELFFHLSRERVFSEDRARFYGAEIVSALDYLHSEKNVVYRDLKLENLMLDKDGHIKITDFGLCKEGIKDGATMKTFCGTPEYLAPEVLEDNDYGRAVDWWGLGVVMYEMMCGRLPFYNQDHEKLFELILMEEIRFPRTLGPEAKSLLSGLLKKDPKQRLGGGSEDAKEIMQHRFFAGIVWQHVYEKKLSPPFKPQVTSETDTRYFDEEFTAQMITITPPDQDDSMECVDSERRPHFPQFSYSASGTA
Chain of 266 human kinases (Homo sapiens, UniProt P06241) (P06241 whole entry): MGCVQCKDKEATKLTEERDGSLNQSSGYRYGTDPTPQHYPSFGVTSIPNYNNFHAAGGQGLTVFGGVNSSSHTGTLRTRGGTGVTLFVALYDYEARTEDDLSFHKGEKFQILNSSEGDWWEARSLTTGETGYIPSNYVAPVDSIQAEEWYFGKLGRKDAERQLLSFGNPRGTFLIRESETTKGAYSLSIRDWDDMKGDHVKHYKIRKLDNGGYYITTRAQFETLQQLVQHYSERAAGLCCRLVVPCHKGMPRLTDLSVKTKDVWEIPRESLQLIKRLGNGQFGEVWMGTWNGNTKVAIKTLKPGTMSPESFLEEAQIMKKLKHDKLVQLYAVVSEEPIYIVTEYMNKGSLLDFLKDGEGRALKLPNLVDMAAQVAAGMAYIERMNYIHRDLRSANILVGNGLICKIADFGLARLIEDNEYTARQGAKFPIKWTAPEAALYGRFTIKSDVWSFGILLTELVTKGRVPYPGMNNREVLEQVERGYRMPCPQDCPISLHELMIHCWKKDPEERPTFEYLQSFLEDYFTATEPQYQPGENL
Chain of 266 human kinases (Homo sapiens, UniProt P16234) (P16234 24-1089): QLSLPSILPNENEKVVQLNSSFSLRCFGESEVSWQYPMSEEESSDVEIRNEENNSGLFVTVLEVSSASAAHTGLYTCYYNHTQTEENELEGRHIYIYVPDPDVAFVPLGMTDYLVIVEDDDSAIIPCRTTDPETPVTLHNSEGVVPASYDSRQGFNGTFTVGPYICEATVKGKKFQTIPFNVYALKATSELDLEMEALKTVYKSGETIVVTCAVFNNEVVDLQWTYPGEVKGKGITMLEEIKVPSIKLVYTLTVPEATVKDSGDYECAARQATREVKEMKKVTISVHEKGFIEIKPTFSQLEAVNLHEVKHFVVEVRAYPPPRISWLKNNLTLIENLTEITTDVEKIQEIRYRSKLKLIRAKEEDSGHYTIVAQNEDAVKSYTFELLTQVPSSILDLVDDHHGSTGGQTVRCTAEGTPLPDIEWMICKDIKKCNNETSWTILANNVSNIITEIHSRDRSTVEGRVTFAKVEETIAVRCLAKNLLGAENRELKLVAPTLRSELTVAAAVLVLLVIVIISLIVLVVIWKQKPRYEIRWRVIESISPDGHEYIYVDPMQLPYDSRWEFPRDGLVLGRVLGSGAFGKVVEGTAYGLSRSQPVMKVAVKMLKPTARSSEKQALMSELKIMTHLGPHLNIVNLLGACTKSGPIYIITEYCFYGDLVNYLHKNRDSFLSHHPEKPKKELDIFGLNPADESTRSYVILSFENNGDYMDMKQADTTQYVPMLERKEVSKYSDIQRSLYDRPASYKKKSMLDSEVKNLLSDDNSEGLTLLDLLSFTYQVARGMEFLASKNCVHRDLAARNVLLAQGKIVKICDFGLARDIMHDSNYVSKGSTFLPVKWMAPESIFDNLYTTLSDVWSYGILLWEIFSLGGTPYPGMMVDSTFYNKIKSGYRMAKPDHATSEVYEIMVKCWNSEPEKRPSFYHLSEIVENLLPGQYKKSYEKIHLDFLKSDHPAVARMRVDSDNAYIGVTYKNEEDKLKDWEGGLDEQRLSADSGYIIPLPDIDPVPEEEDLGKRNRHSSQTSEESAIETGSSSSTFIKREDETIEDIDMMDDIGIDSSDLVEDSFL
Chain of 266 human kinases (Homo sapiens, UniProt P42685) (P42685 whole entry): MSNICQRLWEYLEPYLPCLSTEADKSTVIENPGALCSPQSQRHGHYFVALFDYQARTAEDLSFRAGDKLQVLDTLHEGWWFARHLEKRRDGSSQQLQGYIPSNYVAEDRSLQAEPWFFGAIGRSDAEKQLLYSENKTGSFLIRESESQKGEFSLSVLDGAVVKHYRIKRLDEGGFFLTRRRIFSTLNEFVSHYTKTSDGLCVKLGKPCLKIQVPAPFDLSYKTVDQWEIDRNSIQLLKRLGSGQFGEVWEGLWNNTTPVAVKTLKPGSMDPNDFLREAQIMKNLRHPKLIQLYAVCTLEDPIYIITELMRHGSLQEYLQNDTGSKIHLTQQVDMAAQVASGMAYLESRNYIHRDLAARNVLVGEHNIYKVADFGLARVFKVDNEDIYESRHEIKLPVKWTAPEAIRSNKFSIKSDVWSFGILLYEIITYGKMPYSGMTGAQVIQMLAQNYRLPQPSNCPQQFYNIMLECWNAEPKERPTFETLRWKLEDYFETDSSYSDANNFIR
Chain of 266 human kinases (Homo sapiens, UniProt Q9UPE1) (Q9UPE1 whole entry): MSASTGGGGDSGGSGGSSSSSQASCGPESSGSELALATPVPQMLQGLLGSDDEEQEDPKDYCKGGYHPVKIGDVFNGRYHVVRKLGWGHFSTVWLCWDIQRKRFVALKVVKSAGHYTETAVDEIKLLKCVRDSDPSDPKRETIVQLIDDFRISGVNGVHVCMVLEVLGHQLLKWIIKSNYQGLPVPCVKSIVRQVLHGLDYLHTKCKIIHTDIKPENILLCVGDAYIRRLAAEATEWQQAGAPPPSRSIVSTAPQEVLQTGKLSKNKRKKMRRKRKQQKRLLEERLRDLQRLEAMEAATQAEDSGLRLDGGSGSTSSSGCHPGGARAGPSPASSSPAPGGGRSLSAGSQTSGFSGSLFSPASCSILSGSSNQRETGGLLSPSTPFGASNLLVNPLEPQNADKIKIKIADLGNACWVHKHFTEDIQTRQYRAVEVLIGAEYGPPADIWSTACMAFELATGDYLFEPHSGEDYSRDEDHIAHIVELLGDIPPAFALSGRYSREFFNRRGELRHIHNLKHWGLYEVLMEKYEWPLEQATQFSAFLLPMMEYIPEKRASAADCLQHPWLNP

Sequence | % activity (266 human kinases [1]) | % activity (266 human kinases [2]) | % activity (266 human kinases [3]) | % activity (266 human kinases [4]) | % activity (266 human kinases [5]) | % activity (266 human kinases [6]) | % activity (266 human kinases [7]) | % activity (266 human kinases [8]) | % activity (266 human kinases [9])
HRRIKAWLKKIKALARQLGVAA (mammal) [MMI-0500] | 30% | 22% | 70% | 40% | 83% | 3% | 46% | 96% | 3%
YARAAARQARAKALNRQLGVA (mammal) [MMI-0200] | 110% | 100% | 128% | 108% | 75% | 75% | 98% | 108% | 110%
